Consider one protein from publication PMC5138093 (Journal of molecular biology, 2016).

This data set concerns the molecule itself. Briefly: non-reducing SDS-PAGE and western blot. On the technique in general: In western blotting, separated proteins are transferred to a membrane and probed.

B1: GST fusion of the extracellular domain of IGPR-1 (GST-E-IGPR-1) (domain or fragment, human, UniProt Q96BF3 23-150, looked up)
chain: LSVQQGPNLLQVRQGSQATLVCQVDQATAWERLRVKWTKDGAILCQPYITNGSLSLGVCGPQGRLSWQAPSHLTLQLDPVSLNHSGAYVCWAAVEIPELEEAEGNITRLFVDPDDPTQNRNRIASFPG
Consider B1, for which the binding result is on record as “binds”.
